# T1: DivIVA (Streptococcus pneumoniae (strain R800), UniProt Q8CWP9 1-262)
# T1 construct: DivIVA of Streptococcus pneumoniae, PCR from chromosomal DNA of strain R800, cloned in pETPhos; also called Spn-DivIVA; DivVA; source: E. coli BL21(DE3), purified (Ni-NTA agarose)
# T1 sequence (looked up): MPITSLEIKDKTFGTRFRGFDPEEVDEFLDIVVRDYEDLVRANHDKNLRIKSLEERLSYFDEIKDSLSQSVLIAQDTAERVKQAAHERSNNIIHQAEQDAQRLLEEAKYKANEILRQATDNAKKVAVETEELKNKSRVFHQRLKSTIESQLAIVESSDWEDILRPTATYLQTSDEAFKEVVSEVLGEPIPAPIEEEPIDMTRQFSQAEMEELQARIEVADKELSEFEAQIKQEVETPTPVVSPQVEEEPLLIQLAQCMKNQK
# T2: inactive cytoplasmic domain of StkP-K42R (Streptococcus pneumoniae (strain R800), UniProt Q8DNS0 1-342, K42R)
# T2 construct: also called StkP-K42R cytoplasmic domain; source: E. coli BL21(DE3), purified (Ni-NTA agarose)
# T2 sequence: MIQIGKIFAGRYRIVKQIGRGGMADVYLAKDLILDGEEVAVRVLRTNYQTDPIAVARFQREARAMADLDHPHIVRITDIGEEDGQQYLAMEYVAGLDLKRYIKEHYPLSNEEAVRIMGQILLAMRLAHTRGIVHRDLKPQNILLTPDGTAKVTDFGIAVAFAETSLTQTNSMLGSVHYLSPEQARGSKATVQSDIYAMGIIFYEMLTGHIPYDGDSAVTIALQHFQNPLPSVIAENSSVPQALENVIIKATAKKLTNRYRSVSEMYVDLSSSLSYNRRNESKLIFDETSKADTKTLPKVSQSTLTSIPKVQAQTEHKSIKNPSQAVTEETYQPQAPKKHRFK
# Columns and labels:
# Test in all cases: SPR; BIAcore T100; EzrA or GpsB covalently coupled through amino groups to a CM5 chip; analytes 0.002-1 µM at 30 µL/min in 10 mM HEPES pH 7.4, 150 mM NaCl, 0.005% surfactant; apparent KD from the equilibrium signal (Req); triplicate
# [1] = biological target: EzrA without its N-terminal transmembrane domain (Streptococcus pneumoniae (strain R800))
# [2] = biological target: T1, DivIVA; conditions: both partners purified
# [3] = biological target: T2, inactive cytoplasmic domain of StkP-K42R; conditions: both partners purified
# Sequence of EzrA without its N-terminal transmembrane domain (Streptococcus pneumoniae (strain R800)) (B1IAY5 28-575 limits assumed): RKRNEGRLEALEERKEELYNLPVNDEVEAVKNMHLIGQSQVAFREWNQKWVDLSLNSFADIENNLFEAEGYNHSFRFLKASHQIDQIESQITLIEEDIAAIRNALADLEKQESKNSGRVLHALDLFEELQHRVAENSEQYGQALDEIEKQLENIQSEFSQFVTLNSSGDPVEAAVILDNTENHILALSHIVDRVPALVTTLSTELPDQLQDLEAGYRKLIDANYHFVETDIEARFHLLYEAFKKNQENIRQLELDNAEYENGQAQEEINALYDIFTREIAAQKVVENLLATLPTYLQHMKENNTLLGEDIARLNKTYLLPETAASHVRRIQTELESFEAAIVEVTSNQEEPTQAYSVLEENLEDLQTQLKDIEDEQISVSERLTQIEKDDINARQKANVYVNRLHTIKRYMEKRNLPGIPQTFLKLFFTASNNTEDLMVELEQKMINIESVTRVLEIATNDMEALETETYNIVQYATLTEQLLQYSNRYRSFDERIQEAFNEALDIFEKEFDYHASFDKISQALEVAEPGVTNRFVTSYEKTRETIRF
# Sequence of FtsZ (A0A0H2ZNE0 whole entry): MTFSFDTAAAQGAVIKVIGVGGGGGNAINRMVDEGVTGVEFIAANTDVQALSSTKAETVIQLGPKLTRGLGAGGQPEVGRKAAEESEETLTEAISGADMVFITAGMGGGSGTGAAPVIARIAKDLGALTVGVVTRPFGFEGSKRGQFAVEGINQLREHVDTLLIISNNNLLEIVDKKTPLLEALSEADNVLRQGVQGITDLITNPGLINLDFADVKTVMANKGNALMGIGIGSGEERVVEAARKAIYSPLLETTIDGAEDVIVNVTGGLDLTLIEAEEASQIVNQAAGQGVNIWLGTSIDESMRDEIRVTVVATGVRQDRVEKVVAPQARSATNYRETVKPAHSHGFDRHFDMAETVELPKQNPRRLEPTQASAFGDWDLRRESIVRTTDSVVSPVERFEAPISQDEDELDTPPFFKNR
molecule,measurement,setting,value
FtsZ (from UniProt A0A0H2ZNE0 1-419) (natural protein),Kd,[1],295 nM
GpsB (from UniProt C1CIN3 1-109) (natural protein),Kd,[1],770 nM
DivIVA (natural protein) MPITSLEIKDKTFGTRFRGFDPEEVDEFLDIVVRDYEDLVRANHDKNLRIKSLEERLSYFDEIKDSLSQSVLIAQDTAERVKQAAHERSNNIIHQAEQDAQRLLEEAKYKANEILRQATDNAKKVAVETEELKNKSRVFHQRLKSTIESQLAIVESSDWEDILRPTATYLQTSDEAFKEVVSEVLGEPIPAPIEEEPIDMTRQFSQAEMEELQARIEVADKELSEFEAQIKQEVETPTPVVSPQVEEEPLLIQLAQCMKNQK,Kd,[1],530 nM
"GpsB (natural protein, Streptococcus pneumoniae (strain R800), UniProt C1CIN3 1-109, looked up, GpsB of Streptococcus pneumoniae, PCR from chromosomal DNA of strain R800, cloned in pETPhos; In the SPR either coupled to the chip by its amino groups or injected as analyte; also called Spn-GpsB; source: E. coli BL21(DE3), purified (Ni-NTA agarose)) MASIIFSAKDIFEQEFGREVRGYNKVEVDEFLDDVIKDYETYAALVKSLRQEIADLKEELTRKPKPSPVQAEPLEAAITSSMTNFDILKRLNRLEKEVFGKQILDNSDF",Kd,[2],85 ± 14 nM
same,Kd,[3],500 ± 60 nM

# From paper PMC3983041, “Interplay of the Serine/Threonine-Kinase StkP and the Paralogs DivIVA and GpsB in Pneumococcal Cell Elongation and Division” (PLoS Genetics, 2014)
